Laboratory results taken from article PMC5766154.

Tests used:
[1] = target: AdeR receiver domain with linker sequence (AdeR_RD, 1-137) (Acinetobacter baumannii ATCC19606); test: SEC
[2] = target: full-length AdeR (AdeR_FL), response regulator of Acinetobacter baumannii (Acinetobacter baumannii ATCC19606); test: SEC
AdeR_FL R231A [3] = target: T1, AdeR_FL R231A (Acinetobacter baumannii ATCC19606, UniProt E1A0Z5 1-247, R231A); test: ITC
T1 sequence: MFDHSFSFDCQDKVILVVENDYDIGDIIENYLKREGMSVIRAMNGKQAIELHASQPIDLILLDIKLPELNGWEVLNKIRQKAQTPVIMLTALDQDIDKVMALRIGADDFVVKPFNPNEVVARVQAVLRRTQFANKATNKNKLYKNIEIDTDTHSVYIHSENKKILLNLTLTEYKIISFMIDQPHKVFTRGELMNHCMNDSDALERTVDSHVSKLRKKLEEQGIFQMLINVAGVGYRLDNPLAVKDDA

AdeR_DBD = target: T2, AdeR_DBD (Acinetobacter baumannii ATCC19606, UniProt E1A0Z5 138-247); test: ITC
T2 sequence: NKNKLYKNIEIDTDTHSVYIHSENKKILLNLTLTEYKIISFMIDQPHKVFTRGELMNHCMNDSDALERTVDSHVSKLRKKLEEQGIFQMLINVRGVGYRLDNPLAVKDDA

AdeR_FL = target: T3, AdeR_FL (Acinetobacter baumannii ATCC19606, UniProt E1A0Z5 1-247); test: ITC
T3 sequence: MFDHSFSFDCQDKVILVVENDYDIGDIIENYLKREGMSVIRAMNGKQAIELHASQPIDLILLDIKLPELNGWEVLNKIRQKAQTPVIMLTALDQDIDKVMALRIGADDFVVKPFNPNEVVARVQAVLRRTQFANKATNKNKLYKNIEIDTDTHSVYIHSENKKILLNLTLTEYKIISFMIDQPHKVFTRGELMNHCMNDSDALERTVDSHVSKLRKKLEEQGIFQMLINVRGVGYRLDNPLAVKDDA

AdeR_FL R122A = target: T4, AdeR_FL R122A (Acinetobacter baumannii ATCC19606, UniProt E1A0Z5 1-247, R122A); test: ITC
T4 sequence: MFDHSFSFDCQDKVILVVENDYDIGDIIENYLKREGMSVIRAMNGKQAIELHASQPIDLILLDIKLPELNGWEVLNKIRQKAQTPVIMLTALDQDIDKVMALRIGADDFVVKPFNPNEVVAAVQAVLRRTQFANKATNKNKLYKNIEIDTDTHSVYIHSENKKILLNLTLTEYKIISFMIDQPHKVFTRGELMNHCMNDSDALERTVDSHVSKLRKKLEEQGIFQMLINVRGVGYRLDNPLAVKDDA

AdeR_FL D63E = target: T5, AdeR_FL D63E (Acinetobacter baumannii ATCC19606, UniProt E1A0Z5 1-247, D63E); test: ITC
T5 sequence: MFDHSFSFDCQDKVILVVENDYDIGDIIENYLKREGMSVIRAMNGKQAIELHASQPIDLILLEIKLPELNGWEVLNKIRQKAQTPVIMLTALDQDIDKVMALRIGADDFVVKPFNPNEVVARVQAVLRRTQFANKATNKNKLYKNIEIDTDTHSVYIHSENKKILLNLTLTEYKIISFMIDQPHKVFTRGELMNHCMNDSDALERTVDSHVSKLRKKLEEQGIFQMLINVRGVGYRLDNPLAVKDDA

AdeR_FL R205A/R215A = target: T6, AdeR_FL R205A/R215A (Acinetobacter baumannii ATCC19606, UniProt E1A0Z5 1-247, R205A;R215A); test: ITC
T6 sequence: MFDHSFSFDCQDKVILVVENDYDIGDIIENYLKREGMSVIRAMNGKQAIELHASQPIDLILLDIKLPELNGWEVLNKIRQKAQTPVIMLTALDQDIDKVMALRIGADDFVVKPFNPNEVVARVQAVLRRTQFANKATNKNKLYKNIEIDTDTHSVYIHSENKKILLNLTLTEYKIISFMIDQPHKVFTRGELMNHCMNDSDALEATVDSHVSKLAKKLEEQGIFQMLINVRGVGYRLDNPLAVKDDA

AdeR_FL R231A [4] = target: T1, AdeR_FL R231A; test: EMSA

“AdeR receiver domain with linker sequence (AdeR_RD, 1-137) (domain or fragment)” showed a stoichiometry N [1] of 2.

“full-length AdeR (AdeR_FL), response regulator of Acinetobacter baumannii (natural protein)” was tested, and the stoichiometry N [2] was 2.

B1: 25 bp intercistronic DNA (dsDNA)
DNA 1: TAAAGTGTGGAGTAAGTGTGGAGAA
DNA 2: TTCTCCACACTTACTCCACACTTTA
In the case of B1, the binding result (AdeR_FL R231A [3]) is reported as “no binding”, the Kd (AdeR_DBD) is reported as 2200 nM and the Kd (AdeR_FL) is reported as 20 nM. The Kd (AdeR_FL R122A) was 1000 nM, the binding result (AdeR_FL D63E) was “binds” and the binding result (AdeR_FL R205A/R215A) was “no binding”.

B2: biotin 25 bp intercistronic DNA (dsDNA)
DNA 1: TAAAGTGTGGAGTAAGTGTGGAGAA
DNA 2: TTCTCCACACTTACTCCACACTTTA
B2: no binding (AdeR_FL R231A [4]).
